In this experiment the test system is androgen-responsive genes in LNCaP cells. The experiment in a line: Microarray gene expression profiling of LNCaP cells stably transfected with ebp1. As to conditions: ebp1-overexpressing LNCaP cells vs controls. It counts as cell-based, human. The protocol:
Microarray Analysis: First and second strand cDNA were synthesized from 5-15 μg of total RNA at Genome Explorations (Nashville, Tenn.) using the SuperScript Double-Stranded cDNA Synthesis Kit (Gibco Life Technologies, Gaithersburg, Md.) and an oligo-dT24-T7 (5′-GGCCAGTGAATTGTAATACGACTCACTATAGGGAGGCGG-3′) (SEQ ID NO: 3) primer according to the manufacturer's instructions. cRNA was synthesized labeled with biotinylated UTP and CTP by in vitro transcription using the T7 promoter-coupled, double-stranded cDNA as template and the T7 RNA Transcript Labeling Kit (ENZO Diagnostics Inc., Farmingdale, N.Y.). The fragmented cRNA was hybridized for U133A oligonucleotide arrays (Affymetrix, Santa Clara, Calif.) containing ˜33,000 full-length annotated genes, together with additional probe sets designed to represent EST sequences. The arrays were then stained with phycoerythrein-conjugated streptavidin (Molecular Probes, Eugene, Oreg.), and the fluorescence intensities were determined using a laser confocal scanner (Hewlett-Packard, Palo Alto, Calif.). The scanned images were analyzed using Microarray software (Affymetrix). Sample loading and variations in staining were standardized by scaling the average of the fluorescent intensities of all genes on an array to constant target intensity for all arrays used. The signal intensity for each gene was calculated as the average intensity difference, represented by [E(PM−MM)/(number of probe pairs)], where PM and MM denote perfect-match and mismatch probes. Data analysis was conducted using Microarray Suite 5.0 (Affymetrix) following user guidelines. Only genes with a minimum expression level of 500 were included in this analysis. […] AR-regulated genes include the Androgen Receptor (AR), PSA (kallikrein 3), Kallikrein 2, POV-1, TMPRSS2, and prostate-derived factor.
Ectopic expression of Ebp1 downregulates androgen-regulated genes: Gene expression profiling of LNCaP cells stably transfected with ebp1 was used to determine the range of androgen-dependent genes affected by Ebp1 overexpression. These cells overexpress Ebp1 protein between two- and three-fold (Zhang et al., 2002, Repression of Androgen Receptor Mediated Transcription by the ErbB-3 Binding Protein Ebp1, Oncogene, 21: 5609-5618). Changes in gene expression were measured using microarray analysis of 33,000 transcripts on the Affymetrix U133A chip. To compile a list of differentially regulated genes, only those genes that were activated or repressed at least 3-fold (p <0.05, 500 minimum expression units) were included. […] Forty-one genes were induced and 126 were repressed. Seventy-two of these genes have HUGO approved names. […] These include the Androgen Receptor (3.7 fold decrease), PSA (3.7 fold decrease) as previously reported (Zhang et al., 2002, Repression of Androgen Receptor Mediated Transcription by the ErbB-3 Binding Protein Ebp1, Oncogene, 21: 5609-5618), Kallikrein 2 (3.2 fold decrease), POV-1 (5.0 fold decrease), TMPRSS2 (3.2 fold decrease), and prostate-derived factor (3.2 fold decrease). The Kallikrein 2 gene is regulated by AR, predominantly expressed in prostate tissue, secreted by LNCaP cells, and 78% homologous to PSA. […] The TMPRSS2 gene is androgen-regulated and also highly expressed in prostate and prostate cancer (Afar et al., 2001, Catalytic Cleavage of the Androgen-Regulated TMPRSS2 Protease Results in its Secretion by Prostate and Prostate Cancer Epithelia, Cancer Res., 61:1686-1692).

B1: Ebp1: ErbB3 binding protein (SEQ ID NO: 2), tested by stable ectopic expression (ebp1 transfection) in LNCaP cells (protein)
chain: MSGEDEQQEQTIAEDLVVTKYKMGGDIANRVLRSLVEASSSGVSVLSLCEKGDAMIMEETGKIFKKEKEMKKGIAFPTSISVNNCVCHFSPLKSDQDYILKEGDLVKIDLGVHVDGFIANVAHTFVVDVAQGTQVTGRKADVIKAAHLCAEAALRLVKPGNQNTQVTEAWNKVAHSFNCTPIEGMLSHQLKQHVIDGEKTIIQNPTDQQKKDHEKAEFEVHEVYAVDVLVSSGEGKAKDAGQRTTIYKRDPSKQYGLKMKTSRAFFSEVERRFDAMPFTLRAFEDEKKARMGVVECAKHELLQPFNVLYEKEGEFVAQFKFTVLLMPNGPMRITSGPFEPDLYKSEMEVQDAELKALLQSSASRKTQKKKKKKASKTAENPTSGETLEENEAGD
modifications: Homo Sapien
With B1, the “Androgen Receptor expression, fold decrease” value worked out at 3.7 fold decrease; the “Kallikrein 2 expression, fold decrease” value amounted to 3.2 fold decrease; the “POV-1 expression, fold decrease” value turned out to be 5.0 fold decrease; the “PSA expression, fold decrease” value stood at 3.7 fold decrease. The “TMPRSS2 expression, fold decrease” value is reported as 3.2 fold decrease and the “prostate-derived factor expression, fold decrease” value is reported as 3.2 fold decrease.

Values taken from patent publication US7718626B2, “ErbB3 binding protein compositions and methods of use” (University of Maryland, Baltimore, priority 2005, dated 2010).
